Experimental data taken from PMC10277598.

System: CsrA-His6
Assay: EMSA
Conditions: 10 mM MgCl2; apparent Kd, linear regression (54.7 nM in Fig. S5); 0.5 nM labeled RNA, 0-400 nM CsrA, 10 mM MgCl2, 100 mM KCl, 32.5 ng total yeast RNA, 20 mM DTT, 7.5% glycerol, 4 U SUPERasin, 37 C 30 min; native PAGE in 1X …

## hflK leader RNA (-86 to +48)
  Kd: 55 nM
